Source: patent US20250145701A1

Tests used:
[1] = target: monkey PD-1 (ACRO, His tag) (monkey) (UniProt B0LAJ3); assay: ELISA, monkey PD-1-His coated at 1 ug/mL, anti-human IgG Fc detection, OD450
[2] = target: monkey PD-1 (ACRO, His tag) (monkey) (UniProt B0LAJ3); assay: ELISA, monkey PD-1-His coated at 1 ug/mL, anti-human IgG Fc detection
[3] = target: human VEGF (ACRO, His tag) (human) (UniProt P15692); assay: ELISA, human VEGF-His coated at 50 ng/ml, anti-human IgG Fc detection, OD450; negative control
[4] = target: biotin-labeled human VEGF (ACRO, biotinylated protein) (human) (UniProt P15692); assay: bridging ELISA: human PD-1-His coated at 1 ug/mL, antibody, then biotinylated human VEGF at 50 ng/ml and streptavidin-HRP, OD450; single-target control
Sequence of biotin-labeled human VEGF (ACRO, biotinylated protein) (human) (P15692 other isoform, or with tags, fused parts or gaps limits assumed): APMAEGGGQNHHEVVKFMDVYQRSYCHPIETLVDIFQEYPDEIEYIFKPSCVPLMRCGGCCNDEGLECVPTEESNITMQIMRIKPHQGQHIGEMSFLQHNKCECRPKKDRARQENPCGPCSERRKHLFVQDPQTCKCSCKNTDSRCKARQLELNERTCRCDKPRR

Sequence of monkey PD-1 (ACRO, His tag) (monkey) (B0LAJ3 entry or part of it limits assumed, form in doubt): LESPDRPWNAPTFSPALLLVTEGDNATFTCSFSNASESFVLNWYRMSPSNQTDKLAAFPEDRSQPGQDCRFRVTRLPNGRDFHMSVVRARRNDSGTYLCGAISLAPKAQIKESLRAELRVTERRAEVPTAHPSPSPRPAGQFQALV
Sequence of human VEGF (ACRO, His tag) (human) (P15692 other isoform, or with tags, fused parts or gaps limits assumed): as the sequence (P15692 other isoform, or with tags, fused parts or gaps limits assumed) above

| TOP OD [1] | EC50 [2] | TOP OD [3] | TOP OD [4] | Substance |
| --- | --- | --- | --- | --- |
| 3.08 OD | 187 pM |  |  | Keytruda (pembrolizumab) (antibody) |
| 2.99 OD | 153 pM | 0.048 OD | 0.048 OD | Opdivo (nivolumab) (antibody) |
